# Results as given in patent publication US20050227296A1, “Method for indentifying integrin antagonists” (The General Hospital Corporation, a Massachusetts …, priority 1988, published 2005).
# What was measured:
# [1] = molecular target: T1, fibrinogen (Homo sapiens, UniProt P02671+P02675+P02679); assay: A domain binding to fibrinogen
# T1 sequence (P02671 20-629 limits assumed): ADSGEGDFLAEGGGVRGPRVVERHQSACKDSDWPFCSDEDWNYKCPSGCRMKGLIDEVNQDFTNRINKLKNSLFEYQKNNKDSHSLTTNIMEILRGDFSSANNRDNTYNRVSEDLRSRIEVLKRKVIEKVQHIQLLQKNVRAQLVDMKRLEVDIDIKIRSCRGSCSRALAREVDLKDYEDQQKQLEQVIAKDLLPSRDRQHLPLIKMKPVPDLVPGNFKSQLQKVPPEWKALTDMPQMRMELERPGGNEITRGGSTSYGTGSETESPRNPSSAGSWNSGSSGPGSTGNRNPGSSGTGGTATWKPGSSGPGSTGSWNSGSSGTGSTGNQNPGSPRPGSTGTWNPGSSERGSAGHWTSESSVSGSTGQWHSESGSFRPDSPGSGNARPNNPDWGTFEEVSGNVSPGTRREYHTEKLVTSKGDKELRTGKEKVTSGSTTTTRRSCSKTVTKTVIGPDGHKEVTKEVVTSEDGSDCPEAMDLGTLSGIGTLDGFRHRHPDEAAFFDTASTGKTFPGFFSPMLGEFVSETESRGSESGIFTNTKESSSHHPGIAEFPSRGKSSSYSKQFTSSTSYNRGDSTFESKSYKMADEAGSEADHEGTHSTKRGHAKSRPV
# T1 sequence (P02675 31-491): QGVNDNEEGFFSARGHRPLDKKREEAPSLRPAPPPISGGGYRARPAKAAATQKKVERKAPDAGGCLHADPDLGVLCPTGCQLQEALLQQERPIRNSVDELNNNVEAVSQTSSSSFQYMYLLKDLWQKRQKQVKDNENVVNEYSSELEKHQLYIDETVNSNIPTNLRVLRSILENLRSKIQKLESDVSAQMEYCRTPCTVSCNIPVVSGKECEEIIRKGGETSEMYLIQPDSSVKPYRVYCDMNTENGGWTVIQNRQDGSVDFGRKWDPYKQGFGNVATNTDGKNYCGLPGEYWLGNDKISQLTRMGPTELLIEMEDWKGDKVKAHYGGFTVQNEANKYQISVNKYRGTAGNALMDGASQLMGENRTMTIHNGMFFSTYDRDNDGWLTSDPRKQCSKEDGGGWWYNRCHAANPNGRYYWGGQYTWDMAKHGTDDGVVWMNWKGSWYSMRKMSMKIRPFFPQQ
# T1 sequence (P02679 27-453): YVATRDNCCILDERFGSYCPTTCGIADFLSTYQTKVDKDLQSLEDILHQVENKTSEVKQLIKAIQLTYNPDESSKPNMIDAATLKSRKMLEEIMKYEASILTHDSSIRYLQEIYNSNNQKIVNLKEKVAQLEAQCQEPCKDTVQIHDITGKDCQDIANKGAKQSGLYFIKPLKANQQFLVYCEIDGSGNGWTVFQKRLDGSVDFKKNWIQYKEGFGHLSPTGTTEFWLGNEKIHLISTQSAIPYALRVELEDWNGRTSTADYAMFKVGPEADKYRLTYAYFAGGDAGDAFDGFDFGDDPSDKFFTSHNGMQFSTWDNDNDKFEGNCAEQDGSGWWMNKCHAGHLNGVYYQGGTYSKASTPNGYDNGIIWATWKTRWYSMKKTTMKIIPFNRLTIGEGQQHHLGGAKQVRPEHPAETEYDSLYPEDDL
# [2] = molecular target: EAC3b (Homo sapiens, UniProt P01024); assay: Erythrocyte binding assay, EAC3b on immobilized protein
# Sequence of EAC3b (P01024 749-1663 limits assumed): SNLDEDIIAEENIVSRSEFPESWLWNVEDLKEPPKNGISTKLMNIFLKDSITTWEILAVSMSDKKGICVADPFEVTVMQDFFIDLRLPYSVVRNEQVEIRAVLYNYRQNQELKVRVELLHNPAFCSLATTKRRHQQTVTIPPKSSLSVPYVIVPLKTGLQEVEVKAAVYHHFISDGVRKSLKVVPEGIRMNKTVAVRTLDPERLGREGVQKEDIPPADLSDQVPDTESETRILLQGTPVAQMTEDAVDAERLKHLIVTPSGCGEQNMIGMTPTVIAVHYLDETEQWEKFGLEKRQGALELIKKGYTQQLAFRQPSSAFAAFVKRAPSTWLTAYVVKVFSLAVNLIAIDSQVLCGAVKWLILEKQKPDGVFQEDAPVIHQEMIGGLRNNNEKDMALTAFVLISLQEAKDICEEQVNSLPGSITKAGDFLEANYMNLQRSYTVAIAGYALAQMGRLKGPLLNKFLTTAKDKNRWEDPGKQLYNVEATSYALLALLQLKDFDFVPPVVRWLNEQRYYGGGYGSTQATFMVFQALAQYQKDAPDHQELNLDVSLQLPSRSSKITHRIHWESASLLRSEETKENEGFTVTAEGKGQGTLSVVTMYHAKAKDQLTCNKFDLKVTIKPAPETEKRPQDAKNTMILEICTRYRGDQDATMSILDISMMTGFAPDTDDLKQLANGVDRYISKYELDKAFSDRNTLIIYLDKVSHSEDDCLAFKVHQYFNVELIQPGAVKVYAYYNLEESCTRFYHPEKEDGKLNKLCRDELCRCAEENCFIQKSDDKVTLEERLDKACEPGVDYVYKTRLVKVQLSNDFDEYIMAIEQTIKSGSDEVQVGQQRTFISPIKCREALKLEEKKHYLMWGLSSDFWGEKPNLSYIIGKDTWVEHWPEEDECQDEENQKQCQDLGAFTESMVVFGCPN
# Sequence of EAC3b (P01024 23-667 partner limits assumed): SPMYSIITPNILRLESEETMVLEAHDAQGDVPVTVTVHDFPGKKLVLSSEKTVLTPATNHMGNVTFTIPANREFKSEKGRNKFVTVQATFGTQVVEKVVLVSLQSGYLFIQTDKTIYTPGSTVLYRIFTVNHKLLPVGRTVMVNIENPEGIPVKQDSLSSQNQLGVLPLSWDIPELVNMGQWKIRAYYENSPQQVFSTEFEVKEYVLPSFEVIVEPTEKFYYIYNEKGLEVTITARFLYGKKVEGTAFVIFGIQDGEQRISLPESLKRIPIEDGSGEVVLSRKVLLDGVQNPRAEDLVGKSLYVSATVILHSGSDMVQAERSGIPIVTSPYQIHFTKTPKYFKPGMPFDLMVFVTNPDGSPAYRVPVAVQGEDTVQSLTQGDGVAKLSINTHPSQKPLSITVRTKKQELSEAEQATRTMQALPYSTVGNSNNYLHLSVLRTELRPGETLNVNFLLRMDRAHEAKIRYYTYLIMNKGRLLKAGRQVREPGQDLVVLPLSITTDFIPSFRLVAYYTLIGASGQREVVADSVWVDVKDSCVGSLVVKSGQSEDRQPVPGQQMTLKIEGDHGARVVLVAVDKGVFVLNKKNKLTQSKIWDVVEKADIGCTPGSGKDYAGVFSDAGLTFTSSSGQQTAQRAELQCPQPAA
# Experimental: Erythrocytes (E) coated with rabbit anti-E IgM (EA) or C3b (EAC3b) were prepared as described by Dana et al. (J. Immunol. 73:153, 1984). EAiC3b (erythrocytes coated with iC3b) were generated by treating EAC3b with purified human factors H and I, or alternatively prepared from EA using C5-deficient human serum (Sigma Chemical Co., St. Louis, Mo.). EAiC3b cells were washed and stored in isotonic veronal-buffered saline (VBS^2+), pH 7.4, containing 0.15 mM calcium-1 mM magnesium (MgCl2+CaCl2) and 1 mg/ml Soybean Trypsin Inhibitor (STI; Worthington Biochemical Co., Freehold, N.J.) at 1.5×10^8 cells/ml. […]
# Immobilization of recombinant proteins and peptides: Purified recombinant A-domain was added to Immulon-2 96-well microtiter plates (Dynatech) overnight. […] Binding of the anti-CD11b mabs to the coated rA-domain was measured by ELISA and read using a plate reader (Molecular Dynamics).
# Erythrocyte binding assays: Fluoresceinated EAiC3b, EAC3b or EA were resuspended to 1.5×10^8/ml in buffer A, and added […] to wells containing immobilized proteins or peptides in a total volume of 100 ml. […] Fluorescence was quantified (excitatory wavelength, 490 nm, emission wavelength, 510 nm) using a SLM 8000 fluorometer (SLM Instruments, Urbana, Ill.). […] The effect of temperature was evaluated in the presence of 1 mM MnCl2 at 37° C. and at 4° C.
# [3] = molecular target: T2, EAiC3b (erythrocytes coated with iC3b) (Homo sapiens, UniProt P01024); assay: Erythrocyte binding assay, EAiC3b on immobilized proteins or peptides
# T2 construct: EAiC3b (erythrocytes coated with iC3b) were generated by treating EAC3b with purified human factors H and I; tissue Sigma Chemical Co. (C5-deficient human serum); host or cells: human serum C3 deposited on IgM-coated erythrocytes
# T2 sequence (P01024 749-1303 limits assumed): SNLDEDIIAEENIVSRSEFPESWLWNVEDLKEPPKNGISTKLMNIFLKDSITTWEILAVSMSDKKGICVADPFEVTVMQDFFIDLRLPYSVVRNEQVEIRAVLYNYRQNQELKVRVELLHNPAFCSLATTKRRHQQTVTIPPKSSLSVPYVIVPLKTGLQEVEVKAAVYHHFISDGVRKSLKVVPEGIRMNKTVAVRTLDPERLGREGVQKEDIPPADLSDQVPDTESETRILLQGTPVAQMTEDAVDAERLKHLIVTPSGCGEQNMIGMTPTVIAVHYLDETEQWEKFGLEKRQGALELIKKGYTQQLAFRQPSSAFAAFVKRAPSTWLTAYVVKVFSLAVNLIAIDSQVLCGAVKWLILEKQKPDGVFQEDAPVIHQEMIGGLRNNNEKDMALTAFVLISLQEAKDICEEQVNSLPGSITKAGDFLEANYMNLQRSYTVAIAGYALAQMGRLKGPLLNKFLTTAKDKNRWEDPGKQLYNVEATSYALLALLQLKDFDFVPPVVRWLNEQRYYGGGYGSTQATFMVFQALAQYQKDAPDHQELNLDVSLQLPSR
# T2 sequence (P01024 23-667 partner limits assumed): as the sequence (P01024 23-667 partner limits assumed) above
# T2 sequence (P01024 1321-1663 partner limits assumed): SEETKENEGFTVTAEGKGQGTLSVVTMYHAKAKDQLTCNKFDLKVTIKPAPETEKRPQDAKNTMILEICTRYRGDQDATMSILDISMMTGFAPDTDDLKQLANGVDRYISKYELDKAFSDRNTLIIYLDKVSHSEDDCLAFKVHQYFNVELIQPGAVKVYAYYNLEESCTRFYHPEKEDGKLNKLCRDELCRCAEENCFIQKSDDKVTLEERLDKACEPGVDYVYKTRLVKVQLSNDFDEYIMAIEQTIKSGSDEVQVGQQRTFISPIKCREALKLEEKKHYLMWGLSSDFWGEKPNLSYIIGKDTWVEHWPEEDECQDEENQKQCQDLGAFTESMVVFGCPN
# Experimental: Erythrocytes (E) coated with rabbit anti-E IgM (EA) or C3b (EAC3b) were prepared as described by Dana et al. (J. Immunol. 73:153, 1984). EAiC3b (erythrocytes coated with iC3b) were generated by treating EAC3b with purified human factors H and I, or alternatively prepared from EA using C5-deficient human serum (Sigma Chemical Co., St. Louis, Mo.). EAiC3b cells were washed and stored in isotonic veronal-buffered saline (VBS^2+), pH 7.4, containing 0.15 mM calcium-1 mM magnesium (MgCl2+CaCl2) and 1 mg/ml Soybean Trypsin Inhibitor (STI; Worthington Biochemical Co., Freehold, N.J.) at 1.5×10^8 cells/ml. EA, EAC3b or EAiC3b were labeled with 5-(and-6)-carboxy fluorescein (Molecular Probes, Eugene, Oreg.) as described by Michishita et al. (Cell 72:857, 1993).
# Immobilization of recombinant proteins and peptides: Purified recombinant A-domain was added to Immulon-2 96-well microtiter plates (Dynatech) overnight. Wells were then washed once with phosphate-buffered-saline, pH 7.4 without metals, and blocked with 1% BSA at room temperature (RT) for one hour, followed by two washings with buffer A (composed of 60% GVBS:VBS^2+ mixed in a 1:3 ratio; Arnaout et al., in Complement Receptor Type 3 at 602-615, Academic Press, FL) containing 1 mM MnCl2 or MgCl2+CaCl2. All the peptides were stocked at 1 mg/ml in water and similarly adsorbed to Immulon-2 96-well plates. Binding of the anti-CD11b mabs to the coated rA-domain was measured by ELISA and read using a plate reader (Molecular Dynamics).
# Erythrocyte binding assays: Fluoresceinated EAiC3b, EAC3b or EA were resuspended to 1.5×10^8/ml in buffer A, and added […] to wells containing immobilized proteins or peptides in a total volume of […]. The plates were then briefly centrifuged to settle the erythrocytes, and allowed to incubate at 37° C. for 15 minutes in a humidified incubator with 5% CO2. For the inhibition studies, E were preincubated with each recombinant protein or pure peptide in the presence of 2% BSA for 5 minutes at RT and added to wells coated with immobilized protein or peptide without washing, unless otherwise indicated. At the end of the binding reactions, wells were washed, examined briefly by light microscopy then solubilized with 1% SDS-0.2 N NaOH. Fluorescence was quantified (excitatory wavelength, 490 nm, emission wavelength, 510 nm) using a SLM 8000 fluorometer (SLM Instruments, Urbana, Ill.). In experiments where the effects of individual divalent cations were measured, Ca^2+ and Mg^2+ were replaced with metal-free buffers or with buffers containing each cation at […], unless otherwise indicated. The effect of temperature was evaluated in the presence of 1 mM MnCl2 at 37° C. and at 4° C.
substance,measurement,setting,value
"r11bA: recombinant human CD11b A domain (Cys128 to Glu321), expressed as GST fusion protein, used as such or after thrombin cleavage",binding of the A domain to fibrinogen,[1],binds
same,binding of EAC3b to immobilized protein,[2],not
same,binding of the A domain to iC3b,[3],binds
same,"EAiC3b binding to rA-domain with MnCl2, MgCl2 or MgCl2 plus CaCl2","[3]; 1 mM MnCl2, 1 mM MgCl2 or 1 mM MgCl2 and 0.15 mM CaCl2",supported
same,temperature dependency of EAiC3b binding to rA-domain,"[3]; 37° C. and 4° C., 1 mM MnCl2",temperature-independent
same,direct binding of EAiC3b to immobilized protein or peptide,"[3]; 37° C., divalent cations",bound
same,EAiC3b binding to rA-domain with CaCl2 alone,[3]; CaCl2 alone (0.15-1 mM),ineffective
same,"EAiC3b binding to rA-domain, divalent cations omitted or EDTA included",[3]; no divalent cations or EDTA,No specific binding
